Measurements: patent publication US20230057904A1 (Chugai, published 2023)

Key:
[1] = molecular target: T1, human CLDN3 (human, UniProt O15551 1-220); experiment: flow cytometry on hCLDN3/BaF (Ba/F3 transfectant), Alexa Fluor 488 anti-human IgG; histogram against KLH/TR01
T1 construct: also called hCLDN3; hCLDN3/BaF
T1 sequence: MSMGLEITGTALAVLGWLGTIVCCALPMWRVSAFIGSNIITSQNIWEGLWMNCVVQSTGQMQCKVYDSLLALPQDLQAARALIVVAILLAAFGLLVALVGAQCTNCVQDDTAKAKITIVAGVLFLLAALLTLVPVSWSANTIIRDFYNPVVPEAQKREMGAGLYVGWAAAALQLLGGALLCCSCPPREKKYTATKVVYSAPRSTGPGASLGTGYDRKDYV
Experimental: Amino acid sequence are highly conserved among CLDN3, CLDN4, CLDN6 and CLDN9. Thus we examined CLDN6 binding specificity by FACS analysis. hCLDN6/BaF, hCLDN3/BaF, hCLDN4/BaF, and hCLDN9/BaF were incubated with CS2201, CS2961, AH05/TR01 and 6PHU3/TR01 at 15 micro g/ml. KLH/TR01 generated in Example 2-3 was used as a staining control. Binding of each antibody was detected with Alexa Fluor 488-conjugated anti human IgG (Invitrogen). Dead cells were separated by eFlour 780 (Invitrogen) staining.

[2] = molecular target: T2, human CLDN4 (human, UniProt O14493 1-209); experiment: flow cytometry on hCLDN4/BaF (Ba/F3 transfectant), Alexa Fluor 488 anti-human IgG; histogram against KLH/TR01
T2 construct: also called hCLDN4; hCLDN4/BaF
T2 sequence: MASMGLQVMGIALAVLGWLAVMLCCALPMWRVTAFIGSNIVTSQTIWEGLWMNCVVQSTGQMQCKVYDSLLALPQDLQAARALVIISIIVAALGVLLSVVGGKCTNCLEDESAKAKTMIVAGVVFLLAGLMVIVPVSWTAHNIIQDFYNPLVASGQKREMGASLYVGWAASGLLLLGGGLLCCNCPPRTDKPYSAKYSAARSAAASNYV

[3] = molecular target: T3, human CLDN9 (human, UniProt O95484 1-217); experiment: flow cytometry on hCLDN9/BaF (Ba/F3 transfectant), Alexa Fluor 488 anti-human IgG; histogram against KLH/TR01
T3 construct: also called hCLDN9; hCLDN9/BaF
T3 sequence: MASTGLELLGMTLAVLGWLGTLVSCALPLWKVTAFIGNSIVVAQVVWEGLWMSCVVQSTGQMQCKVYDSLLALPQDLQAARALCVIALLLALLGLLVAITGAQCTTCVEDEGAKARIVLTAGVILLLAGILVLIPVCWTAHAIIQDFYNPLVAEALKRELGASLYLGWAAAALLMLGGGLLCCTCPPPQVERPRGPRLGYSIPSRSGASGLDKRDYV

Measured: binding result

B1: CS2961 (bispecific antibody, human IgG1, kappa, L234A L235A, N297A)
heavy 1: QVQLVESGGGVVQPGGSLRLSCAASGFTFSSYTMSWVREAPGQGLEWMGTISSGGGRTYYPDSVKGRFTISRDNSKNTLYLQMNSLRDEDTAVYYCARGDYRYDGFAYWGEGTLVTVSSASTKGPSVFPLAPSSKSTSGGTAALGCLVEDYFPEPVTVSWNSGALTSGVHTFPAVLESSGLYSLSSVVTVPSSSLGTQTYICNVNHKPSNTKVDERVEPKSCDKTHTCPPCPAPEAAGGPKVFLFPPKPKDTLMISRTPEVTCVVVDVSHEDPEVKFNWYVDGVEVHNAKTKPREEQYASTYRVVSVLTVLHQDWLNGKEYKCKVSNKGLPSSIEKTISKAKGQPREPQVYTLPPSREEMTKNQVSLTCLVKGFYPSDIAVEWESNGQPENNYKTTPPVLDSDGSFFLYSKLTVDKSRWQQGNVFSCSVMHEALHNHYTQESLSLSP
light 1: DIQMTQSPSSLSASVGDRVTITCRASYNIDSYLAWYQKKPGKAPELLIYYSTLLVDGVPDRFSGSRSGTDFTLTISSLQPEDFATYYCQHYYSIPYTFGQGTKVEIERTVAAPSVFIFPPSDKQLKSGTAKVVCLLNNFYPREAKVQWKVDNALQSGNSKESVTEQDSKDSTYSLSSTLTLSKADYEKHKVYACEVTHQGLSSPVTKSFNRGEC
heavy 2: QVQLVESGGGVVQPGGSLRLSCAASGFTFSNAWMHWVRKAPGKGLEWVAQIKDKSQNYATYVAESVKGRFTISRADSKNSIYLQMNSLKTEDTAVYYCRYVHYAAGYGVDIWGQGTTVTVSSASTKGPSVFPLAPSSKSTSGGTAALGCLVKDYFPEPVTVSWNSGALTSGVHTFPAVLKSSGLYSLSSVVTVPSSSLGTQTYICNVNHKPSNTKVDKRVEPKSCDKTHTCPPCPAPEAAGGPKVFLFPPKPKDTLMISRTPEVTCVVVDVSHEDPEVKFNWYVDGVEVHNAKTKPREEQYASTYRVVSVLTVLHQDWLNGKEYKCKVSNKGLPSSIEKTISKAKGQPREPQVYTLPPSRKEMTKNQVSLTCLVKGFYPSDIAVEWESNGQPENNYKTTPPVLDSDGSFFLYSKLTVDKSRWQQGNVFSCSVMHEALHNHYTQKSLSLSP
light 2: DIVMTQSPLSLPVTPGEPASISCRSSQPLVHSNRNTYLHWYQEKPGQAPRLLIYKVSNRFSGVPDRFSGSGSGTDFTLKISRVEAEDVGVYYCGQGTQVPYTFGQGTKLEIKRTVAAPSVFIFPPSDEQLKSGTAEVVCLLNNFYPREAKVQWKVDNALQSGNSEESVTEQDSKDSTYSLSSTLELSKADYEKHKVYACEVTHQGLSSPVTKSFNRGEC
notes: also called 65HQ39E-SG1212/54L0532Q38K-SK1021//TR01 arm with SG1213/SK1017
no binding (tested: 15 micro g/ml): [1] | [2] | [3]
